Results from patent publication US20250197503A1, “ANTI-HUMAN PD-Ll AND TLR7 DOUBLE-TARGETING NANOBODY CONJUGATE DRUG AND USE THEREOF IN RESISTING TUMOR” (SHANGHAI INSTITUTE OF MATERIA MEDICA , CHINESE ACADEMY OF …, priority 2022, published 2025).

Target: human PD-L1 (human) (UniProt Q9NZQ7)
Assay: FACS blocking of human PD-1/PD-L1 binding

Sequence of human PD-L1 (human) (Q9NZQ7 19-290): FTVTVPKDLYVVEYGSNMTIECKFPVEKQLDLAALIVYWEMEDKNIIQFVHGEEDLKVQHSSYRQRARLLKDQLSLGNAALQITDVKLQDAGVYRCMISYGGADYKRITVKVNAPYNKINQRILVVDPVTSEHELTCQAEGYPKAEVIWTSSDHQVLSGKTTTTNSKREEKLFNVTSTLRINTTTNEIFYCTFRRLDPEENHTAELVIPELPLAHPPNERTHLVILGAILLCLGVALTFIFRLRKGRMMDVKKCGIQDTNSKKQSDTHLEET

- IC50: 0.208 µg/mL
Substance: KN035
